Experimental findings from the DeepSol protein solubility set are described below.

This data set can be described thus: soluble on expression in E. coli; label from the status in PepcDB or PDB records.
On to “MWDSENIEELSLVIGIGLDKPDDENLELTQQILVPKIISAKEGSSSDPTQLSITKGKTVHQMMRTSALKHKPTFSQHLRLILLSKSVIADQIGMDAIINQFVRDNGTRRSSYVFITNGRTKDIFNMNDEGEPASNVIYDLTENNKVTIRTMEPVTLGEISEHLTSDDSFLIPHVGKENGKLAINGASIIKNKLWHRDLTPIEVQNISLFSGTVEGGVIDLKRDGHLFSYEVYSSNRKIKTAYKDGKFKFTVTRNIEGRLSEDWNPNEDSFKDSYIKSIEKTVEKRVHETVTSFITEKLQKEIKADVTGLGNEVRIHYPQKWKKISRKWDDDYFSNAEIDYRVNVIVRDFGTKGANKLEHHHHHH”, for which the “soluble on expression in E. coli” value is given as “not soluble”. In the case of “MWDTSKDYRLLVAEKSVELFIRTIEGAKFRGQWDKKRSIQLAKEMIPDIQALRYSYIDPEELVDTPQMKDLKEKAKGIIEALGGEDWHHKFLSQASREDREKVEEQVARIKFFLNTILNLDRRLKLGKINDPVIAVDIVVGEVMSVGKHPSADRLLVTNVNIGERAVTVVTNDLTVKEGNRVAVALLPPRNFFGIVSEGMFLGAGEGVLKNVKGEIGGLPKGIPLEALNETRNAVEAFLKG” it was “soluble”. As to “MWKIMRSWKCGGMRWAHRQRPSHELLSQLSFDQHYKIRSNIELLIQDYASKPIAPLNYEYFLQYRPPLTKKEEYMLTIKTINLLLSLTCKRLNAIQRLPYNAVINPHIERTNSLYLKSLQTLLSIAYPYELHNPPKIQAKFTELLDDHEDAIVVLAKGLQEIQSCYPKFQISQFLNFHLKERITMKLLVTHYLSLMAQNKGDTNKRMIGILHRDLPIAQLIKHVSDYVNDICFVKFNTQRTPVLIHPPSQDITFTCIPPILEYIMTEVFKNAFEAQIALGKEHMPIEINLLKPDDDELYLRIRDHGGGITPEVEALMFNYSYSTHTQQSADSESTDLPGEQINNVSGMGFGLPMCKTYLELFGGKIDVQSLLGWGTDVYIKLKGPSKTALLSKK”, the “soluble on expression in E. coli” value is recorded as “soluble”. In the case of “MWQRIRLLQTLVSQKGAATAAAGAASSSPTAAAAAATTAAPPSPAPSVAADNERSFLRNLIPMRVYSSGPPSIYLRHAFLNQDRLIRRFLGALEAVPLPSLPRLLLAEGFQRMLEGDVPQRELRELFEDAEVECRKMLLHMDVSKSGHRRYHDSHADPRDQEMWHAVRHDPLRRLLAHELRAACSHYARLMGVSSSPYVPAAVIVRTIIASDVRTDNFLVKMTLAFERHPRNVETGEPVGEAMPPVVEELMKELLLLERDAFGCFRFDPRGDNHHLVHSLKLADITKTPRSFSVMRDPLMKRYGNYCVECEEVHKGRWNQYKVHCGPEDHRIDPALPLFESVVATDPITGGALNMLVHYDEPICLRHKHSLREEKGNFGHTEVFELAMDVTNRTFWERYFLDR” it was “soluble”.

In the case of “MYDYGTFAFASKADVLDQAKAFWNPDKTQFWTDSGVDLVIDRREGYFLWDMSGRRLIDLHLNGGTYNIGHRNPEVMQAISEGMAHFDVGNHHFPSVARTALAKRLVETAPASIKKVAFGSGGGEAIDIALKSARHGTQRRKIVSVIKAYHGHTGLAVATGDDRFAKLFLADRPDEFIQVPFGDIGAMEAALAGGDVAAVIMETIPATYGFPLPPPGYLEAVKALTERHGTLYIADEVQTGLMRTGELWGITKHGIDPDIIVTGKGLSGGMYPISAVLLGERAARWLDQDGFGHISTFGGAELGCVAAIKTLEICTRPEVRSMVHYIADIFDTGLRRIQADYPDWFVGIRQNGVVIGLEFDHPEGAKFVMRELYENGVWAIFSTLDPRVLQFKPGLLLSRELCEDVLDRLEVAVGRARATVTGRRNG”, the “soluble on expression in E. coli” value is reported as “not soluble”.

In the case of “MYFIAGMFDGKEKVNREQPPMPTTDGVEYPRAASWAAGNCANVLNDDKGKQLFRVFLFQSLAEENLAFLEAMEKLKKMKISDEKVAYAKEILETYQGSINLSSSSMKSLRNAVASETLDMEEFAPAIKEVRRLLENDQFPRFRRSELYLEYLEELLPRSYAEKWAQSFEGLLGNHVGRHHFRIFLRSIHAEENLRFWEAVVEFRSSRHKANAMNNLGKVILSTYLAEGTTNEVFLPFGVRQVIERRIQDNQIDITLFDEAIKHVEQVLRNDPYVRFLQSSQYIDLLSKLK”, the “soluble on expression in E. coli” value was “not soluble”.

On to “MYGKLNDLLEDLQEVLKHVNQHWQGGQKNMNKVDHHLQNVIEDIHDFMQGGGSGGKLQEMMKEFQQVLDEIKQQLQGGDNSLHNVHENIKEIFHHLEELVHR”, for which the “soluble on expression in E. coli” value is reported as “soluble”. In the case of “MYINNKLTEDLLLGEIYYLISKTYFFIENIQKAINFAFLAKSEFEKVYNKKAYAKSLELLAEEHAKVGDLESAIAYSKQSLNVYKELEQLDKISSIEDSLGKLFFEFDNIEESFEHYNRAIKIREENTDSKLLDTLFNLCENHIKTKNMNKCIEILNEIKNKLNVSDVNRLIEYKILTFRIEVLQNNIKEAENILLDTLEIAKRNDMKKKEADISIRLGKFYLELKRDYEAAKYLDKGINNLKNLGVIKSLEHHHHHH” it was “not soluble”; in that of “MYKILEKKEIAMRNTWYKVYAPHVAKKVQPGQFVIVRAFPNGERIPLTPVMWDREEGWIVLIVFTRGKTTMRMAVELKEGDSLLNVAGPLGTPVPMEKFGKILAIGAYTGIVEVYPIAKAWQEIGNDVTTLHVTFEPMVILKEELEKAVTRHIVEPVPLNPNQDFLANMKNVSQRLKEKVRELLESEDWDLVFMVGPVGDQKQVFEVVKEYGVPMKVDLHPIMVDGTGMCGACRVTVGGEVKFACVDGPEFDAYQVDWDELIHRVGFYAKLEKLALEKYMEELKAKGVILEHHHHHH”, “not soluble”; in that of “MYKPTERNAQNSLAMMNYAYDTSLQETMILTEAFHTDRVICDNGSLYKFIWVQEGKLTLIVDHVEIEMEQDEIISVSNLHRTEFKNVSGRYLALLFNENFYGIYKHEKEVSCSGVLFNGTSGIVHLRLPIADSELLHEVVDRMVTEYILRDNLQGEMLRLLLKRFIILCTRLARKQLSGFPVNEKGFDIIQRYYVLVDNHFKEKKQVQAYAALLHRSPKTLSNLFAAYGMPSPLKIIQERVVTEAKRLLLHTSHSIKEISVILGFESVGTFSRFFKNMTGENTSAYRKRLQ”, “not soluble”.

“MYKVSHGLSMVHEDEMGVNAPMDHQRVISKLNVGLGKLFYYDKAISLEPLPETMLDEGRTSRYDGPPTPDLILYDKARDHIPVIIEVCHTRGLKGDLQKVVSLIEDFPYDILEGFVYNYRTEHWFRYRKGDNGIATETSFSEILQLDLNQFL”: the “soluble on expression in E. coli” value was “not soluble”. In the case of “MYLKRPIWSDGASATPENPSESETGEESDAASMVVEELVTSLNTQRLYRELTLSLRTGLRDACAEFSFLRIRGLRSLLKTLRTVADSDSIIRLFSHTQTISDLQLVPVLFQHSLKEAEDDKVTSLDHIFSVEPMKITSPSTDAEVAVALRVLEGCCLLHPQSTVLAHKHGAVRVMMNVLSTRGVLEQGACLDALISVLLDSSANQVDFGACNGIEEVAMLMRDKQADENLSIYTIKIAVNEDSFPFCLFWLRCGEFLLLLVGHVNGKDRSPIASVNEDIRRLLGEKSASLIWAASQFGSTGDPEQRITALHIQAGRVLESLDLY” it was “soluble”. With “MYMKHIENGTRIEGEYIKNKVIQYNMSILTDEVKQPMEEVSLVVKNEEGKIFGGVTGTMYFYHLHIDFLWVDESVRHDGYGSQLLHEIEGIAKEKGCRLILLDSFSFQAPEFYKKHGYREYGVVEDHPKGHSQHFFEKRL”, the “soluble on expression in E. coli” value is “soluble”.

In the case of “MYNSKQFLRTVNWHFVNSCNMSCKYCFVSCCKELPLEESISVLEKLKGHFDRINFVGGEPTVSSKLIPLVKKAKEYGFIVSMVTNGFNLYHKPETFDEILTDFSIIGISIDSLNENTNVLIGRSVKNSVLSRDDYIDLCKKIKLAGCKLKINTVVSRVNLDENFNDFYETVMPDRIKLLQVLRPAGRLKQDYTDFLIEEDDYLEFVQRHHKFSEVICSENNELMLNSYYILNSDACFLDNKSGCISGSLLENDLKSVLKNVYVDENKYRARYA”, the “soluble on expression in E. coli” value is listed as “not soluble”. Consider “MYPYIKLIATLFRAKNSPQMNLDEKSVLNCRAGLTDIDVFVELNNARHLTYMEFGRWDFAQRTGLLSLMRKNKWAFAVGGASVRYRRRIAFWKKFTVTTQVICHDGRWFYFLQETHIKDKVCSSALIKAAFTSKQGLVPATEVLAAYGKTTPNFDVPDWVNAWIDAESQRPWPLEHHHHHH”, for which the “soluble on expression in E. coli” value is recorded as “soluble”. As for “MYQLSRTQILPVPLTVAWDFFSDPRNLAAITPPDMGFVITSPVPERTHAGMVVTYAVSPFGGLRLPWVTEITHCAEPSLFVDEQRFGPYRFWHHQHHFLEVSGGVEMRDIVHYILPFGIIGRLSAPVVAKRLKAIFDYRRDTLAVRFAALSRGALEHHHHHH”, the “soluble on expression in E. coli” value is “not soluble”.
